# Where “and” joins values, the source holds several entries; their conditions need not be identical. Equal values may be shown once.
# B1: anti-human CCR8 antibody mAb1 (IgG) (antibody, V domains shown)
# VH: QSVEESGGRLVTPGTPLTLTCTVSGFSLSNYAMIWVRQAPGEGLEWVGTISLGGYTYYANWAKGRFTISKTSTTVDLKISSPTTEDTATYFCARARWSTDSAIYTYAFDPWGPGTLVTVSS
# VL: AYDMTQTPASVEVAVGGTVTIKCQASQSISSYLSWYQQKPGQRPELLIYKASTLASGVSSRFKGSGSGTQFTLTISDLEAADAATYYCQQGYTSSNIDNIFGGGTEVVVK
# notes: variable region and CH1 as the heavy chain of Fab1, deposited in PDB 8TLM; as the light chain of Fab1, deposited in PDB 8TLM; Raised in rabbits; a humanized version was also made; the IgG was detected with anti-human IgG (Fc) secondaries; In the radioligand assay the tracer was 125I-labelled mAb1 (random tyrosines); also called anti-hCCR8 mAb1; anti-CCR8 mAb1
# Tests used:
# [1] = molecular target: human CCR8 on CHO cells stably expressing human CCR8 (CHO.hCCR8) (human) (UniProt P51685); test: real-time cell binding (LigandTracer); hCCL1^AF647 added at 0.5, 10 and 50 nM in sequence to CHO.hCCR8 cells at room temperature, then dissociation in medium; signal of CHO wild-type cells subtracted; one-to-two step model
# [2] = molecular target: T1, human CCR8 on CHO cells stably expressing human CCR8 (CHO.hCCR8) (Homo sapiens, UniProt P51685); test: cell-based or functional assay
# [3] = molecular target: T1, human CCR8 on CHO cells stably …; test: radioligand binding; unlabeled mAb1 (from 50 nM, 1:3 dilutions) against a fixed concentration of 125I-mAb1 on CHO.CCR8 cells, room temperature, 18 h; heterologous one site-fit Ki competitive binding model; three independent experiments, not averaged; conditions: one partner purified
# T1 sequence (P51685 whole entry): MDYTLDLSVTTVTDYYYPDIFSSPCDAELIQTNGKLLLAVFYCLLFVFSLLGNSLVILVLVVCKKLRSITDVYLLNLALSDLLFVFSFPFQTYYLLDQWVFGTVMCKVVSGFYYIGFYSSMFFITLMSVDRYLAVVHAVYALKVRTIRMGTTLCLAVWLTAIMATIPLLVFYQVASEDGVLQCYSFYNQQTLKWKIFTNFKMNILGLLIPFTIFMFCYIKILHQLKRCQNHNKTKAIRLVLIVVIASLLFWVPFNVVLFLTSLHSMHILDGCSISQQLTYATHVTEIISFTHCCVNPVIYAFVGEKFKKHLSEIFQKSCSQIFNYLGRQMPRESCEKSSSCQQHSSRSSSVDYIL
# human CCR8 on CHO cells stably expressing human CCR8 (CHO.hCCR8) (human), sequence (P51685 whole entry): as above
"KD of the high affinity binding event (slow on, slow off) [1] [nM]","KD of the low affinity binding event (fast on, fast off) [1] [nM]",Kd [1] [nM],Ca^2+ influx (FLIPR) in CHO.hCCR8 cells: inhibition of the signal induced by a sub-maximal (EC80) concentration of CCL1 (blocks CCL1-CCR8); apparent IC50 [2] [nM],Kd [3] [nM],Ki [3],Molecule
0.7,15,1,–,–,–,AlexaFluor647-labeled human CCL1 (hCCL1^AF647) (from UniProt P22362 24-96) (ligand)
–,–,–,57.9,0.0284,0.0414 nM and 0.0555 nM,B1
